Reference: patent US20200093922A1 (AGENCY FOR SCIENCE TECHNOLOGY AND RESEARCH, published 2020)

Experiments:
[1] = target: biotinylated murine PD-L1 (murine, UniProt Q9EP73 19-238, limits assumed, biotinylated (site not stated)); test: blocking ELISA: biotinylated murine PD-L1 pre-incubated with Fab, then added to coated murine PD-1-Fc (blocked partner), streptavidin-HRP
[2] = target: T1, human PD-L1 coupled to human Fc (human, UniProt Q9NZQ7 19-239, limits assumed); test: SPR, Proteon XPR36, human PD-L1-Fc immobilised, crude H12 Fab extract flown over
T1 construct: also called human PD-L1-Fc; not shown: human Fc

[3] = target: T1, human PD-L1 coupled to human Fc; test: SPR (Proteon XPR36), human PD-L1-Fc immobilised, crude H12 Fab extract flowed
biotinylated human PD-L1 = biotinylated human PD-L1 (human, UniProt Q9NZQ7 19-238, limits assumed, biotinylated (site not stated)); test: blocking ELISA: biotinylated human PD-L1 pre-incubated with Fab, then added to coated human PD-1-Fc (blocked partner), streptavidin-HRP
[4] = target: T2, murine PD-L1 coupled to human Fc (murine, UniProt Q9EP73 19-238, limits assumed); test: SPR (Proteon XPR36), mouse PD-L1-Fc immobilised, crude H12 Fab extract flowed
T2 construct: also called murine PD-L1-Fc; mouse PD-L1 coupled to Fc; not shown: human Fc

[5] = target: T2, murine PD-L1 coupled to human Fc; test: SPR, Proteon XPR36, murine PD-L1-Fc immobilised, crude H12 Fab extract flown over

T2 sequence (Q9EP73 19-238 limits assumed): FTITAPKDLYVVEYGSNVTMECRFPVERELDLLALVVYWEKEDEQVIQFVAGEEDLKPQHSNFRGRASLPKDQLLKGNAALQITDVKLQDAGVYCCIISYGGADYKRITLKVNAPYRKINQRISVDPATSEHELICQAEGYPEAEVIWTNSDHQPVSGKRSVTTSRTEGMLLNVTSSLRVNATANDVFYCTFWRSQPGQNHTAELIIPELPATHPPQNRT
T1 sequence (Q9NZQ7 19-239 limits assumed): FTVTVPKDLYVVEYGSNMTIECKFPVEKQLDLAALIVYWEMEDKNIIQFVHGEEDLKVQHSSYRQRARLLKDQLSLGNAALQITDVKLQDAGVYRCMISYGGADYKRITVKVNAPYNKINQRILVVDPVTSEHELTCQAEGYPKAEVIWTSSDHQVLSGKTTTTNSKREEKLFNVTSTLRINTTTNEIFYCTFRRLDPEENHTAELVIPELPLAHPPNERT
Chain of biotinylated murine PD-L1 (Q9EP73 19-238 limits assumed): as the sequence (Q9EP73 19-238 limits assumed) above
Chain of biotinylated human PD-L1 (Q9NZQ7 19-238 limits assumed): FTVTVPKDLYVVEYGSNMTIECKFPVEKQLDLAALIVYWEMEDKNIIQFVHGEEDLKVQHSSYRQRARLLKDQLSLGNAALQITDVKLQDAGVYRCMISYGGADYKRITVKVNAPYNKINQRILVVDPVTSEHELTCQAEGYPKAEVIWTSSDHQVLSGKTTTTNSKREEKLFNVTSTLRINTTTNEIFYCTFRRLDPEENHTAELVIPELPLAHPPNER

IC50 (read off the curve) [1]: ~4 nM | koff [2]: 0.000471 s⁻¹ | kon [2]: 1.5e+06 M⁻¹ s⁻¹ | Kd [3]: 0.313 nM | IC50 (read off the curve) (biotinylated human PD-L1): ~20 nM | Kd [4]: 3.04 nM | koff [5]: 0.00407 s⁻¹ | kon [5]: 1.34e+06 M⁻¹ s⁻¹
B1: anti-PD-L1 antibody clone H12, Fab format (Fab, V domains shown)
VH: EVQLVQSGAEVKKPGASVKVSCKASGGTFSSYAISWVRQAPGQGLEWMGRIIPILGIANYAQKFQGRVTITADKSTSTAYMELSSLRSEDTAVYYCARSGHGYSYGAFDYWGQGTL
VL: QSVLTQPPSVSGAPGQRVTISCTGSSSNIGAGYDVHWYQQLPGTAPKLLIYGNSNRPSGVPDRFSGSKSGTSASLAITGLQAEDEADYYCQSYDSSLSGSYVVFGGGTKLTVL
notes: Tested as Fab; the SPR used a crude Fab extract; also called crude H12 Fab extract
